Assay results published in patent US20100028342A1 (published 2010).
Values joined by “and” are separate entries in the source; they are usually repeats but may differ in a detail not shown here. Identical values can stand only once.

B1: antibody A12 (fully human IgG1 anti-IGF-IR antibody) (antibody, V domains shown)
VH: EVQLVQSGAEVKKPGSSVKVSCKASGGTFSSYAISWVRQAPGQGLEWMGGIIPIFGTANYAQKFQGRVTITADKSTSTAYMELSSLRSEDTAVYYCARAPLRFLEWSTQDHYYYYYMDVWGKGTTVTVSS
VL: SSELTQDPAVSVALGQTVRITCQGDSLRSYYATWYQQKPGQAPILVIYGENKRPSGIPDRFSGSSSGNTASLTITGAQAEDEADYYCKSRDGSGQHLVFGGGTKLTVLG
notes: also called A12 IgG
B2: antibody 2F8 (fully human IgG1 anti-IGF-IR antibody) (antibody, V domains shown)
VH: B1 VH
VL: SSELTQDPAVSVALGQTVRITCQGDSLRSYYASWYQQKPGQAPVLVIYGKNNRPSGIPDRFSGSSSGNTASLTITGAQAEDEADYYCNSRDNSDNRLIFGGGTKLTVLS
notes: also called 2F8 IgG

Assays:
[1] = target: T1, recombinant mouse IGF-IR (mIGF-IR) (mouse, UniProt Q60751 31-933, limits assumed); experiment: ELISA on immobilized recombinant mouse IGF-IR
T1 construct: also called mIGF-ER

[2] = target: T2, native human IGF-IR on human tumor cells (human, UniProt P08069 31-1367); experiment: competition: blocking of IGF-I binding to MCF7 cells (breast)
T2 construct: whole, on cells; also called native IGF-IR; endogenous cellular IGF-IR
Description: (§1) The anti-IGF-IR antibodies were tested for blocking of radiolabeled ligand binding to native IGF-IR on human tumor cells (FIG. 1C). Assay conditions were performed according to Arteaga and Osborne (Cancer Res. 49:6237-41 (1989)), with minor modifications. MCF7 human breast cancer cells were seeded into 24 well dishes, and cultured overnight. Sub-confluent monolayers were washed 2-3 times in binding buffer (Iscove's Medium/0.1% BSA) and antibody added in binding buffer. […] The wells were then washed three times with ice-cold PBS/0.1% BSA. Monolayers were then lysed with 200 μl 0.5N NaOH and counted in a gamma counter.

[3] = target: T2, native human IGF-IR on human tumor cells; experiment: competition: blocking of IGF-I binding to T47D cells (breast)
[4] = target: T2, native human IGF-IR on human tumor cells; experiment: competition: blocking of IGF-I binding to 8226 cells (myeloma)
[5] = target: T2, native human IGF-IR on human tumor cells; experiment: competition: blocking of IGF-I binding to OV90 cells (ovarian)
[6] = target: T2, native human IGF-IR on human tumor cells; experiment: competition: blocking of 125I-IGF-I binding to IGF-IR on MCF7 cells
Description: as §1

[7] = target: T2, native human IGF-IR on human tumor cells; experiment: competition: blocking of IGF-I binding to HPAC cells (pancreatic)
[8] = target: T2, native human IGF-IR on human tumor cells; experiment: competition: blocking of IGF-I binding to BXPC3 cells (pancreatic)
[9] = target: T2, native human IGF-IR on human tumor cells; experiment: competition: blocking of IGF-I binding to HT-29 cells (colorectal)
[10] = target: T2, native human IGF-IR on human tumor cells; experiment: competition: blocking of IGF-I binding to SK-ES1 cells (Ewing sarcoma)

T1 sequence (Q60751 31-933 limits assumed): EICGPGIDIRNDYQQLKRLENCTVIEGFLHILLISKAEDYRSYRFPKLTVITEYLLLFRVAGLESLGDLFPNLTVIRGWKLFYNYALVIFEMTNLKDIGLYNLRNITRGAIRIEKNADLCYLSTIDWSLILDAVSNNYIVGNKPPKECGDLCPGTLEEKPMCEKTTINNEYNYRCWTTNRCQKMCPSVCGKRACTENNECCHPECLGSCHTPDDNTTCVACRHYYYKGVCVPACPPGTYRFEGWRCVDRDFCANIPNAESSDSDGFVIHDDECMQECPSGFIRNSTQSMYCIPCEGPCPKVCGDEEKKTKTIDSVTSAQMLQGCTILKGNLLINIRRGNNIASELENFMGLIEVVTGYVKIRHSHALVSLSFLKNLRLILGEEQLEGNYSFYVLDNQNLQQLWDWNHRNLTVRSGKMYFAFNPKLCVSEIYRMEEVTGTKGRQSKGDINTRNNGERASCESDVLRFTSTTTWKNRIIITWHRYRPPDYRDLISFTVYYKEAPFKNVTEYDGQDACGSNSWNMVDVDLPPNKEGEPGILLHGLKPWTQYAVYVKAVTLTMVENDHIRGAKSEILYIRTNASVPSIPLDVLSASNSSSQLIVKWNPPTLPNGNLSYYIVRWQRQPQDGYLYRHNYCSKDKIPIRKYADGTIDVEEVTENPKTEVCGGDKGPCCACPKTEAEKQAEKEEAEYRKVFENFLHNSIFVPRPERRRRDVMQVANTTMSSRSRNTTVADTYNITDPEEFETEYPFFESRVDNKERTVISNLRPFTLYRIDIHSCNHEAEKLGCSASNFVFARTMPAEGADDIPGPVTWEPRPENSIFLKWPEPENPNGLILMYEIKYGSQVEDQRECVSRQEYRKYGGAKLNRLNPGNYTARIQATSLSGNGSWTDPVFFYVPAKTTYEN

Binder | EC50 [1] | IC50 [2] | IC50 [3] | IC50 [4] | IC50 [5] | IC50 [6] | IC50 [7] | IC50 [8] | IC50 [9] | IC50 [10]
B1 | 0.3 to 0.5 nM | 3 nM | 6 nM | 20 nM | 6 nM | 0.45 µg/mL | 10 nM | 20 nM | 10 nM | 2 nM
B2 | – | – | – | – | – | 30 nM and 4.5 µg/mL | – | – | – | –
